Reference: publication PMC10215022

Columns and labels:
[1] = target: SARS-CoV-2 Delta (B.1.617.2) spike protein RBD, His-tagged (SARS-CoV-2 Delta (B.1.617.2)) (UniProt P0DTC2); assay: SPR
[2] = target: SARS-CoV-2 Omicron (B.1.1.529) spike protein RBD, His-tagged (SARS-CoV-2 Omicron (B.1.1.529)) (UniProt P0DTC2); assay: SPR

## decavalent IgM ACE2 decoy (from UniProt Q9BYF1;P01591) (Fc fusion)
[1]
  Kd: 0.49 nM
  koff: 0.00013 s⁻¹
  kon: 260000 M⁻¹ s⁻¹
[2]
  Kd: 2.4 nM
  koff: 0.00036 s⁻¹
  kon: 150000 M⁻¹ s⁻¹
